In paper PMC9300185 (Chembiochem, 2021):

Target: the molecule itself
Experiment: crystal structure

B1: LecA, galactose-binding lectin of Pseudomonas aeruginosa (natural protein)
chain: AWKGEVLANNEAGQVTSIIYNPGDVITIVAAGWASYGPTQKWGPQGDREHPDQGLICHDAFCGALVMKIGNSGTIPVNTGLFRWVAPNNVQGAITLIYNDVPGTYGNNSGSFSVNIGKDQS
stoichiometry N: 4
